From the supplement of paper PMC7877785 come the findings set out here.

± gives the uncertainty stated by the source.

This series in a line: self-splicing fitness, log relative to wild type (ln ratio); higher = more splicing; Tetrahymena group I intron in knt gene, E. coli kanamycin selection, DiMSum; sequences stand for … in CUCUCU…GGAGGGAAAAGUUAUCAGGCAUGCACCUGGUAGCUAGUCUUUAAACCAAUAGAUUGCAUCGGUUUAAAAGGCAAGACCGUCAAAUUGCGGGAAAGGGGUCAACAGCCGUUCAGUACCAAGUCUCAGGGGAAACUUUGAGAUGGCCUUGCAAAGGGUAUGGUAAUAAGCUGACGGACAUGGUCCUAACCACGCAGCCAAGUCCUAAGUCAACAGAUCUUCUGUUGAUAUGGAUGCAGUUCACAGACUAAAUGUCGGUCGGGGAAGAUGUAUUCUUCUCAUAAGAUAUAGUCGGACCUCUCCUUAAUGGGAGCUAGCGGAUGAAGUGAUGCAACACUGGAGCCGCUGGGAACUAAUUUGUAUGCGAAAGUAUAUUGAUUAGUUUUGGAGUACUCGUGGUCG
The essentials: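 Library with all eight P1ex-region intron nucleotides randomised, intron inside the knt kanamycin-resistance gene on pET-22b(+), in E. coli BL21(DE3). Cells grew overnight at 37°C or 30°C on LB agar with or without 25 μg/mL kanamycin (plus 100 μg/mL carbenicillin, 50 μM IPTG, 0.2% rhamnose), in six replicate transformations. Pooled colonies were amplicon-sequenced on Illumina HiSeq 2500. DiMSum fitness is the error-weighted combination of wild-type-normalised replicate fold changes, kanamycin versus none.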

Regarding UGAAAGCAAUAUUACGCGGG, the “self-splicing fitness (ln)” value is, setting by setting: (30 °C) -2.8 ± 0.13; (37 °C) -0.83 ± 0.11.
The matching figures for GACCAGCAAUAUUACGAGUU: -3.35 ± 0.1 and -1.5 ± 0.096.
The corresponding values for UAUGAGCAAUAUUACGCUUG are -3.32 ± 0.4 and 0.0607 ± 0.25.
With AGGCAGCAAUAUUACGAUGA, the “self-splicing fitness (ln)” value reads like this: (30 °C) -1.23 ± 0.13; (37 °C) 0.113 ± 0.14.
With CUCAAGCAAUAUUACGAGAA, the “self-splicing fitness (ln)” value was -1.89 ± 0.31 (30 °C) and -1.1 ± 0.24 (37 °C).
For the sequence CAGGAGCAAUAUUACGGCUU, the “self-splicing fitness (ln)” value (30 °C) is -3.93 ± 0.23 and the “self-splicing fitness (ln)” value (37 °C) is -2.15 ± 0.21.
The matching figures for CAGUAGCAAUAUUACGGGCU: -3.56 ± 0.26 and -1.21 ± 0.15.
The corresponding values for AGGGAGCAAUAUUACGGCGA are -3.35 ± 0.4 and -2.62 ± 0.44.
The matching figures for GCAAAGCAAUAUUACGCUCU: -1.27 ± 0.075 and -0.565 ± 0.097.
Turning to AUGAAGCAAUAUUACGCAUG, the “self-splicing fitness (ln)” value is -0.801 ± 0.077 (30 °C) and 0.175 ± 0.085 (37 °C).
The matching figures for GCGAAGCAAUAUUACGAGUA: -2.13 ± 0.3 and -1.28 ± 0.19.
The matching figures for CAGUAGCAAUAUUACGUGUC: -3.74 ± 0.27 and -3.17 ± 0.33.
The matching figures for UACCAGCAAUAUUACGUCAC: -4.46 ± 0.42 and -2.32 ± 0.35.
Consider GCUGAGCAAUAUUACGGCAU, for which the “self-splicing fitness (ln)” value (30 °C) was -2.59 ± 0.2 and the “self-splicing fitness (ln)” value (37 °C) is -1.82 ± 0.18.
The matching figures for GUAAAGCAAUAUUACGACUG: -2.11 ± 0.2 and -1.48 ± 0.28.
The matching figures for UACAAGCAAUAUUACGCUUG: -3.1 ± 0.23 and -2.79 ± 0.41.
The matching figures for UACAAGCAAUAUUACGCCAG: -1.5 ± 0.12 and -1.81 ± 0.15.
With GUGGAGCAAUAUUACGCGAG, the “self-splicing fitness (ln)” value (37 °C) is -1.53 ± 0.38.
Turning to GCCAAGCAAUAUUACGAAGG, the “self-splicing fitness (ln)” value is -2.52 ± 0.13 (30 °C) and -2.15 ± 0.22 (37 °C).
The corresponding values for GAACAGCAAUAUUACGUCCG are -1.5 ± 0.13 and -0.784 ± 0.17.
Take ACGUAGCAAUAUUACGUUAC: the “self-splicing fitness (ln)” value is -3.3 ± 0.23 (30 °C) and -2.83 ± 0.26 (37 °C).
The matching figures for GUUCAGCAAUAUUACGCAUA: -0.815 ± 0.083 and 0.0985 ± 0.1.
The corresponding values for GCUAAGCAAUAUUACGAUCC are -0.136 ± 0.12 and -0.278 ± 0.14.
The corresponding values for GGUAAGCAAUAUUACGCGCG are -0.623 ± 0.1 and 0.012 ± 0.14.
Consider GCAGAGCAAUAUUACGACAU, for which the “self-splicing fitness (ln)” value is -3.172 ± 0.023 (30 °C) and -2.06 ± 0.037 (37 °C).
Take AACUAGCAAUAUUACGGGUC: the “self-splicing fitness (ln)” value (30 °C) was -1.88 ± 0.24 and the “self-splicing fitness (ln)” value (37 °C) was -1.78 ± 0.22.
The corresponding values for AUGAAGCAAUAUUACGGAUC are -0.696 ± 0.09 and -0.0788 ± 0.099.
The matching figures for ACUUAGCAAUAUUACGCUCU: -0.715 ± 0.13 and -0.397 ± 0.14.
The corresponding values for GGUGAGCAAUAUUACGCGUU are -2.61 ± 0.15 and -0.173 ± 0.16.
On to GGGAAGCAAUAUUACGGUGC, for which the “self-splicing fitness (ln)” value is -1.17 ± 0.17 (30 °C) and -0.397 ± 0.22 (37 °C).
The matching figures for UCCUAGCAAUAUUACGGACA: -2.68 ± 0.37 and -2.29 ± 0.31.
The corresponding values for CAAAAGCAAUAUUACGCUGA are -3.25 ± 0.2 and -1.81 ± 0.15.
Turning to GCAGAGCAAUAUUACGAACG, the “self-splicing fitness (ln)” value (37 °C) is -1.78 ± 0.43.
Regarding AUCUAGCAAUAUUACGCUAA, the “self-splicing fitness (ln)” value (30 °C) is -2.07 ± 0.12 and the “self-splicing fitness (ln)” value (37 °C) is -0.871 ± 0.12.
The matching figures for GCCAAGCAAUAUUACGUGAU: -0.879 ± 0.053 and 0.385 ± 0.07.
As to UCUGAGCAAUAUUACGAUAC, the “self-splicing fitness (ln)” value (37 °C) is -2.12 ± 0.25.
Take UGAUAGCAAUAUUACGUCUA: the “self-splicing fitness (ln)” value by setting is: (30 °C) 0.0941 ± 0.089; (37 °C) -0.107 ± 0.094.
Consider CAGCAGCAAUAUUACGAAGC, for which, for the setting “30 °C”, the “self-splicing fitness (ln)” value was -4.28 ± 0.31.
For the sequence ACCUAGCAAUAUUACGUCCU, the “self-splicing fitness (ln)” value was -0.685 ± 0.067 (30 °C) and -0.579 ± 0.075 (37 °C).
